# Results taken from patent publication US20110239319, “Use of Endonucleases for Inserting Transgenes Into Safe Harbor Loci” (published 2011).
# B1: SH39 target (dsDNA)
# DNA 1: TCCTTCTGTCTTAAGAGATTTATC
# DNA 2: GATAAATCTCTTAAGACAGAAGGA
# B2: SH43 target (dsDNA)
# DNA 1: TAAATACGTCTTACATTATTTTGC
# DNA 2: GCAAAATAATGTAAGACGTATTTA
# B3: SH52 target (dsDNA)
# DNA 1: CTCCACTGTCTTACCTAATCCAGC
# DNA 2: GCTGGATTAGGTAAGACAGTGGAG
# B4: SH19 target (dsDNA)
# DNA 1: GCAAAACATTGTAAGACATGCCAA
# DNA 2: TTGGCATGTCTTACAATGTTTTGC
# B5: SH3 target (dsDNA)
# DNA 1: CCAATACAAGGTACAAAGTCCTGA
# DNA 2: TCAGGACTTTGTACCTTGTATTGG
# B6: SH31 target (dsDNA)
# DNA 1: TTGTAATGTCTTACAAGGTTTTAA
# DNA 2: TTAAAACCTTGTAAGACATTACAA
# B7: SH44 target (dsDNA)
# DNA 1: AAGAAATGTCTCACAGAATTTTAC
# DNA 2: GTAAAATTCTGTGAGACATTTCTT
# B8: SH41 target (dsDNA)
# DNA 1: CCTCTCTTAGGTGAGACGGTACAT
# DNA 2: ATGTACCGTCTCACCTAAGAGAGG
# B9: SH4 target (dsDNA)
# DNA 1: TTAAAACACTGTACACCATTTTGA
# DNA 2: TCAAAATGGTGTACAGTGTTTTAA
# B10: SH42 target (dsDNA)
# DNA 1: TATATCCCATGTGAGACATGCAGT
# DNA 2: ACTGCATGTCTCACATGGGATATA
# Legend:
# Experiment in all cases: cell_activity; endogenous locus, 293H
# SCOH-SH39-b11-C = biological target: T1, SCOH-SH39-b11-C (artificial)
# T1 chain: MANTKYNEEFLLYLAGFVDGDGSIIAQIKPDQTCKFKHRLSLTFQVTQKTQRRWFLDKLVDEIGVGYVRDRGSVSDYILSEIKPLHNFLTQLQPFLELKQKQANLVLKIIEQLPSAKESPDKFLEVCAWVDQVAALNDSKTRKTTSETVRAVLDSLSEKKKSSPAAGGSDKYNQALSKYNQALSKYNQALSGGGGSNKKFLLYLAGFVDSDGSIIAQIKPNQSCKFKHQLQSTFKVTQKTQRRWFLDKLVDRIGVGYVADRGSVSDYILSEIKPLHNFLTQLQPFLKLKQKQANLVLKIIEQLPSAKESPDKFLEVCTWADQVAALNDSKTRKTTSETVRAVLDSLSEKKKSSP
# Experimental: (§1) Human embryonic kidney 293H cells (Invitrogen) were plated at a density of 1×10⁶ cells per 10 cm dish in complete medium (DMEM supplemented with 2 mM L-glutamine, penicillin (100 UI/ml), streptomycin (100 μg/ml), amphotericin B (Fongizone) (0.25 μg/ml) (Invitrogen-Life Science) and 10% FBS). The next day, cells were transfected with 3 μg of single-chain meganuclease expression vector using Lipofectamine 2000 transfection reagent (Invitrogen) according to the supplier's protocol. After 2 to 6 days of incubation at 37° C., cells were trypsinized and genomic DNA extraction was performed with the DNeasy blood and tissue kit (Qiagen) according to the supplier's protocol.
# (§2) Human embryonic kidney 293H cells were transfected with a plasmid expressing a single-chain safe harbor meganuclease. After 2 to 6 days of incubation at 37° C., genomic DNA was isolated and PCR was used to amplify the genomic sequence surrounding the meganuclease target site. Sequences were then analyzed for the presence of insertions or deletions events (InDel) in the cleavage site of each safe harbor target.
# SCOH-SH43-b12-C = biological target: T2, SCOH-SH43-b12-C (artificial)
# T2 chain: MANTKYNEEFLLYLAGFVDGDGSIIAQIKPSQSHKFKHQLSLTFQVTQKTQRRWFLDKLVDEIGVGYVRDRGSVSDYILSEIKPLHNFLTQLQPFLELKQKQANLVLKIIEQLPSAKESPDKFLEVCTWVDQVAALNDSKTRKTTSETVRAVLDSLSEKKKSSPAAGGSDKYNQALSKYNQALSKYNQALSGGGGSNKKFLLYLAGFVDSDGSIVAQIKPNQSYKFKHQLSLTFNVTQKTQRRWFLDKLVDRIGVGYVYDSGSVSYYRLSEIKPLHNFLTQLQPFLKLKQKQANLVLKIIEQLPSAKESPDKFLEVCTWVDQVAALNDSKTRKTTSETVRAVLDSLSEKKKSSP
# Experimental: as §1, §2
# SCOH-SH52-b12-C = biological target: T3, SCOH-SH52-b12-C (artificial)
# T3 chain: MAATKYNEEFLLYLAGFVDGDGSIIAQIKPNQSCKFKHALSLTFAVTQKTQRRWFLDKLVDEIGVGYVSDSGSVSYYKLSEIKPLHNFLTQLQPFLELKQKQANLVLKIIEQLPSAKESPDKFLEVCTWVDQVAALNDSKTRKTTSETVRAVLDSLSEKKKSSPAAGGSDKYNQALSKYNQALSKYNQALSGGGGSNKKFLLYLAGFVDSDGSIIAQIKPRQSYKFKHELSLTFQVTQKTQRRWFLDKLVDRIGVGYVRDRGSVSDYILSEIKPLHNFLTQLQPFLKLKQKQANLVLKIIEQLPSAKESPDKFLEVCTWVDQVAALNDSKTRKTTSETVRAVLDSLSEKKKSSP
# Experimental: as §1, §2
# SCOH-SH19 = biological target: T4, SCOH-SH19 (artificial)
# T4 chain: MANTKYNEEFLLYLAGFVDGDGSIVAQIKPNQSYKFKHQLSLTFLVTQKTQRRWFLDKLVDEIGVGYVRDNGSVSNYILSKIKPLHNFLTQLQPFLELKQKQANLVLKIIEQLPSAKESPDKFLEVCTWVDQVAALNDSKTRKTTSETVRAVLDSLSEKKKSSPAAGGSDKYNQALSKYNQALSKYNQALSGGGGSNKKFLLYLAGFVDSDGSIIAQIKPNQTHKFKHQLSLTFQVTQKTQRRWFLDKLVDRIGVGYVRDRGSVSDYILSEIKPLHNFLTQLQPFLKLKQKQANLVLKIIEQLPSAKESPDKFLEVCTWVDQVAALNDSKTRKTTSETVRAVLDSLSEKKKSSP
# Experimental: as §1, §2
# SCOH-SH3-b1-C = biological target: T5, SCOH-SH3-b1-C (artificial)
# T5 chain: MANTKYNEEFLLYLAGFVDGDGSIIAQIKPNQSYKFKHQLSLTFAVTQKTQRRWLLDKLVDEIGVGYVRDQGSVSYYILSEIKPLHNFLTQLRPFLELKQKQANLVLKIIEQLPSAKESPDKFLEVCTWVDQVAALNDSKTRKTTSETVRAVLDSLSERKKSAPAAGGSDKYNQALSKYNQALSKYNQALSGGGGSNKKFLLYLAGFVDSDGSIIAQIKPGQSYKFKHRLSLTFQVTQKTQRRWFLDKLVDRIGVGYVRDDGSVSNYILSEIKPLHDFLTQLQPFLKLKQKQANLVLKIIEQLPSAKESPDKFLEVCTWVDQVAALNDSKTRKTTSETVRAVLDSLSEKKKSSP
# Experimental: as §1, §2
# SCOH-SH31.2 = biological target: T6, SCOH-SH31.2 (artificial)
# T6 chain: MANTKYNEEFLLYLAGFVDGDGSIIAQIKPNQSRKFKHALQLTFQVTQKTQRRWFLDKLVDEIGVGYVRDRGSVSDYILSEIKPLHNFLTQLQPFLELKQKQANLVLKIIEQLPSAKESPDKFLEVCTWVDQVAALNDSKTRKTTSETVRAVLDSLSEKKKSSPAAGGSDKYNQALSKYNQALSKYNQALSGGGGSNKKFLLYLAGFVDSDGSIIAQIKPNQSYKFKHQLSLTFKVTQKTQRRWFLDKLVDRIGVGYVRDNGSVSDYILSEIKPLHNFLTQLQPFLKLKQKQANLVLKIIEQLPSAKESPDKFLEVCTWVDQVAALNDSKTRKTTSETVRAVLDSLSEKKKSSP
# Experimental: as §1, §2
# SCOH-SH44-b11-C = biological target: T7, SCOH-SH44-b11-C (artificial)
# T7 chain: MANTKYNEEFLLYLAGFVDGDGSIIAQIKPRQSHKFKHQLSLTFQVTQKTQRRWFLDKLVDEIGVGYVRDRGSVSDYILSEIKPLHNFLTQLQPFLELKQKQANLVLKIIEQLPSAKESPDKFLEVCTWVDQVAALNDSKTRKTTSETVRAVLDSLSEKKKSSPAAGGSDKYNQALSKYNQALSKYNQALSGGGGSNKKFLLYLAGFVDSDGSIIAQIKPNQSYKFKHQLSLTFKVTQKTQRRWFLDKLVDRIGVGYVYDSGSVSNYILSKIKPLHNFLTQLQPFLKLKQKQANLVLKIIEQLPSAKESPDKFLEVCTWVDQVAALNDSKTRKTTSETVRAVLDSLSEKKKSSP
# Experimental: as §1, §2
# SCOH-SH41-b11-C = biological target: T8, SCOH-SH41-b11-C (artificial)
# T8 chain: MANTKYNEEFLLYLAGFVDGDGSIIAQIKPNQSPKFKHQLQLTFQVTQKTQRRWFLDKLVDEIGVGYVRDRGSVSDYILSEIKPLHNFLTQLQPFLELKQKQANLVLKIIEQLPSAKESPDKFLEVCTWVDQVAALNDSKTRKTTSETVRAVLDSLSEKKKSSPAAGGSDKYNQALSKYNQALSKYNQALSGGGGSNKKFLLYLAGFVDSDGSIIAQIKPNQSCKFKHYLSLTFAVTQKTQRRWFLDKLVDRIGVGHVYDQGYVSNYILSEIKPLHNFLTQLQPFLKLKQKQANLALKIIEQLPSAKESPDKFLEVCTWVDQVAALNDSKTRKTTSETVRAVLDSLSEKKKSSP
# Experimental: as §1, §2
# SCOH-SH4-b1-C = biological target: T9, SCOH-SH4-b1-C (artificial)
# T9 chain: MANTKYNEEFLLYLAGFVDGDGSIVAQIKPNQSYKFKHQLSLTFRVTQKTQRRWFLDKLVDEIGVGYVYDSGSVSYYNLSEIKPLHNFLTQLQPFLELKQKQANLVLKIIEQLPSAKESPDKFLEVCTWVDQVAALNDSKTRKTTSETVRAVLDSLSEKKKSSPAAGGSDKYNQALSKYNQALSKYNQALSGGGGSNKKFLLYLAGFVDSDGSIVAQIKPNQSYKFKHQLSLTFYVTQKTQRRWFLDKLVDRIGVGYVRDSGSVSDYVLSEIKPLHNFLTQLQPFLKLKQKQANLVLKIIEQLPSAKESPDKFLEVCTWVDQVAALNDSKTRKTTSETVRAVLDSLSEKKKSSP
# Experimental: as §1, §2
# SCOH-SH42-b11-C = biological target: T10, SCOH-SH42-b11-C (artificial)
# T10 chain: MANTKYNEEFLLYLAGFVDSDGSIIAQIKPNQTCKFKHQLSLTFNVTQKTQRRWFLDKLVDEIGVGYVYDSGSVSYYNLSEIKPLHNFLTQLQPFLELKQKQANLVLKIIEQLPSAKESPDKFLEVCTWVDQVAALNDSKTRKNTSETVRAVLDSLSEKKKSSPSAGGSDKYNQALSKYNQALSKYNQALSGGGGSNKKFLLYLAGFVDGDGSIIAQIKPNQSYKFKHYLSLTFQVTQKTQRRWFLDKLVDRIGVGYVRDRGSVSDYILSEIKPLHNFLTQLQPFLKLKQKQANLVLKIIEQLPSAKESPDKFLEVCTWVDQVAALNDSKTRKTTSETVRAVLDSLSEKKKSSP
# Experimental: as §1, §2
binder,measurement,setting,value
B1,activity,SCOH-SH39-b11-C,1.5 % InDels
B2,activity,SCOH-SH43-b12-C,0.4 % InDels
B3,activity,SCOH-SH52-b12-C,3.2 % InDels
B4,activity,SCOH-SH19,0.9 % InDels
B5,activity,SCOH-SH3-b1-C,0.8 % InDels
B6,activity,SCOH-SH31.2,5 % InDels
B7,activity,SCOH-SH44-b11-C,3.6 % InDels
B8,activity,SCOH-SH41-b11-C,0.4 % InDels
B9,activity,SCOH-SH4-b1-C,0.2 % InDels
B10,activity,SCOH-SH42-b11-C,0.7 % InDels
